According to the supplement of paper PMC7125110:
± gives the standard error. This sample holds only a part of the variants without activity.

B1: glmS ribozyme (parent)
chain: AUAAAAGCGCCAGAACUACAGAAAUGUAGUUGACGAGGAGGAGGUUUAUCGAAUUUUCGGCGGAUGCCUCCAAA

Variants of: B1
Assay: self-cleavage kobs at 2500 uM GlcN6P; higher = faster cleavage; RNA array
Conditions: with glucosamine-6-phosphate
Method in brief: (§1)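 kobs was derived by fitting per-tile medians to one- or two-exponential decays after normalising signals to baseline and to non-cleaving reference variants. Those signals came from barcoded ribozyme variants transcribed in situ by E. coli RNA polymerase on sequenced MiSeq chips, followed through a hybridised Cy3 probe at 37 °C and imaged over ~14 h. Glucosamine-6-phosphate (40 μM to 10 mM) in HEPES/KCl/Mg(OAc)2 buffer was flowed in. Weighted Michaelis–Menten fits across concentrations then gave kcat and KM.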

| Variant | self-cleavage kobs at 2500 uM GlcN6P |
| --- | --- |
| A6G A14U U30C A48U C67G C68G | 7.37e-05 ± 3e-05 s⁻¹ |
| C10A C34G C68G | < 1e-05 s⁻¹ |
| G13C A33C G63A A64C | < 1e-05 s⁻¹ |
| A14U A15U C16U | 5.74e-05 ± 2.3e-05 s⁻¹ |
| G29A G41A A48C C71G | < 1e-05 s⁻¹ |
| C11U C16A U56G | 0.000124 ± 4.3e-05 s⁻¹ |
| C11U U30G U45G | 0.000105 ± 4e-05 s⁻¹ |
| C11U U30G U45A | 0.00111 ± 0.00024 s⁻¹ |
| G7C C16U G29U C61U | < 1e-05 s⁻¹ |
| U47A A64U C67G | < 1e-05 s⁻¹ |
| U45C A52U C68U | < 1e-05 s⁻¹ |
| A14U U56A G63A | < 1e-05 s⁻¹ |
| C8A C10G A39C | < 1e-05 s⁻¹ |
| G13U A39G C71A | 0.000144 ± 4.9e-05 s⁻¹ |
| U57C G60A G66C | < 1e-05 s⁻¹ |
| G37A G44A U56C C71A | < 1e-05 s⁻¹ |
| G43A A53U U56G G62U | < 1e-05 s⁻¹ |
| G7A A33C C58U U65G C70G | < 1e-05 s⁻¹ |
| A6U G32C C34U | < 1e-05 s⁻¹ |
| C8A G37A A42C | < 1e-05 s⁻¹ |
| A6C G7U U54C | < 1e-05 s⁻¹ |

| Variant | self-cleavage kobs at 2500 uM GlcN6P |
| --- | --- |
| G9U U31G G44U C61U | < 1e-05 s⁻¹ |
| A6U A39G C70U | 8.18e-05 ± 3.2e-05 s⁻¹ |
| A15G G60U G63C | < 1e-05 s⁻¹ |
| G44C U49A G60A G66U | < 1e-05 s⁻¹ |
| C8U G13U G59U | < 1e-05 s⁻¹ |
| A18U | 0.00664 ± 0.0014 s⁻¹ |
| A39G G43U U54C | 6.53e-05 ± 2.4e-05 s⁻¹ |
| G13A C16U G29U | 5.93e-05 ± 2e-05 s⁻¹ |
| G32A A53U U56A C71U | 4.22e-05 ± 1e-05 s⁻¹ |
| A14C G32U U47C C67G | < 1e-05 s⁻¹ |
| C8G A42U U49C A52G | < 1e-05 s⁻¹ |
| C8U A39G G60C | < 1e-05 s⁻¹ |
| A48U C50U U56C G63A A64C U65A | < 1e-05 s⁻¹ |
| U47G G62A C70G | 0.000139 ± 3.4e-05 s⁻¹ |
| G7C C11G G37U C58U | < 1e-05 s⁻¹ |
| G13C A14C G35C | < 1e-05 s⁻¹ |
| C8G A52G G59A | < 1e-05 s⁻¹ |
| C10A G38C C58G | < 1e-05 s⁻¹ |
| G32U A42G U55C U56C C58G | 5.49e-05 ± 1.3e-05 s⁻¹ |
| A33U C34G A36U C67U | < 1e-05 s⁻¹ |
| A42G A52C A53G U54G | < 1e-05 s⁻¹ |

| Variant | self-cleavage kobs at 2500 uM GlcN6P |
| --- | --- |
| U46C U47A U69A | 0.000198 ± 6.5e-05 s⁻¹ |
| C11U U30C A52G A64U | < 1e-05 s⁻¹ |
| C11U A39U U49A U69C | < 1e-05 s⁻¹ |
| U54A A64G C70A | 0.000536 ± 0.00018 s⁻¹ |
| C16U G37A U46C U56G | 0.000119 ± 2.7e-05 s⁻¹ |
| A36C C50U G59A | < 1e-05 s⁻¹ |
| G41C U45A U56G C67G C70G | 0.00118 ± 0.00023 s⁻¹ |
| A6U A12U U46C C50U | < 1e-05 s⁻¹ |
| A6G C11G U47A | < 1e-05 s⁻¹ |
| G35A G40A G66U | < 1e-05 s⁻¹ |
| G38A U55C U56C | < 1e-05 s⁻¹ |
| G41U U45C A64U | < 1e-05 s⁻¹ |
| A48U A53U U69C | 0.000134 ± 3.4e-05 s⁻¹ |
| A15U C16G A33U U49C | < 1e-05 s⁻¹ |
| C11U G44U U69G | < 1e-05 s⁻¹ |
| A12G C34U C68A | < 1e-05 s⁻¹ |
| A6C G44U U54G U57C | < 1e-05 s⁻¹ |
| C8U G35A G63U | < 1e-05 s⁻¹ |
| C10U A33C A36U U54A | < 1e-05 s⁻¹ |
| A15C U47C U55C | 0.000237 ± 7.7e-05 s⁻¹ |
| C34G G59A | < 1e-05 s⁻¹ |

| Variant | self-cleavage kobs at 2500 uM GlcN6P |
| --- | --- |
| C11A A14G G40U | 5.01e-05 ± 1.9e-05 s⁻¹ |
| A6C C34U C50G | 0.000502 ± 0.00022 s⁻¹ |
| U30C G38U A42C | < 1e-05 s⁻¹ |
| C34G G51U U56C C67U | < 1e-05 s⁻¹ |
| G7A C10A A48G | < 1e-05 s⁻¹ |
| G40U C58G G60U C68U | < 1e-05 s⁻¹ |
| A12C A52U C67U | 0.000185 ± 4.2e-05 s⁻¹ |
| C8A A14G A64U | < 1e-05 s⁻¹ |
| A14G C16U A36G | 4.05e-05 ± 1.5e-05 s⁻¹ |
| G13U G29U U54G | 8.58e-05 ± 2.4e-05 s⁻¹ |
| A6G C34A C50U U69A | < 1e-05 s⁻¹ |
| A6G A36C U55C | < 1e-05 s⁻¹ |
| C8A G35A G38A A53G | < 1e-05 s⁻¹ |
| G37C A52G U56G | < 1e-05 s⁻¹ |
| G41C G51C U56A G62A | < 1e-05 s⁻¹ |
| A12U G44C A53U | 6.46e-05 ± 1.9e-05 s⁻¹ |
| U30G U45A C58G | 9.63e-05 ± 1.6e-05 s⁻¹ |
| G32C A33U G40U | < 1e-05 s⁻¹ |
| U45C U46C C70A | 0.000116 ± 4.4e-05 s⁻¹ |
| C10G C19A A39U U69C | < 1e-05 s⁻¹ |

Variants of: B1
Assay: self-cleavage kobs at 10000 uM GlcN6P; higher = faster cleavage; RNA array
Conditions: with glucosamine-6-phosphate
Method in brief: as §1

| Variant | self-cleavage kobs at 10000 uM GlcN6P |
| --- | --- |
| G13U A39G C71A | 0.000285 ± 6.4e-05 s⁻¹ |
| G7C C11G G37U C58U | < 1e-05 s⁻¹ |
| C34G G59A | < 1e-05 s⁻¹ |
| U30G U45A C58G | 0.000163 ± 4.1e-05 s⁻¹ |
